US6030602A, “Peptide conjugates for transfecting cells” (Hoffmann-La Roche Inc., priority 1996, dated 2000)

Experiments:
Assay type in all cases: cell-based
[1] = system: suspension cell-line WEHI 231.7; test: Transfection with luciferase plasmid, compound of Example 1b or cationic lipids (Table 4); details: for Luciferase activity: WEHI 231.7, 6 well plates, 2 μg DNA per well, 48 h, background subtracted, DOTAP/DOSPER at cationic lipid/DNA 5/1 (wt/wt)
Procedure: a) 1.0 mg of the compound obtained in Example 1b) was dissolved in trifluoroethanol and dried in vacuo. The film was then rehydrated with 1 ml of 10 mM Tris maleate buffer pH 6.
b) 10 μl of a plasmid DNA solution (1 mg/ml) were diluted with 190 μl of pure, sterile water. 100 μl of the product obtained in paragraph a) were added and gently mixed. The mixture was then added to cells.
Table 4: Transfection of various cell lines with the compound of Example 1b or cationic lipids. Cells grown in 6 well plates were transfected with a luciferase encoding plasmid (2 μg DNA per well) formulated as described earlier in this Example. Luciferase activity was measured 48 h later. Results are expressed as light units per mg of cell protein. Background was substracted from each measurement.
*)DOTAP (Avanti Polar Lipids Inc.) or DOSPER (BoehringerMannheim)
transfection complexes were prepared according to manufacturer's
instructions and were used at a cationic lipid/DNA ratio of 5/1 (wt/wt).

CHO K1 = test: Transfection with luciferase plasmid, compound of Example 1b/DOPE or cationic lipids (Table 2); details: 48 h after transfection, Example 1b mixed with DOPE per Example 2, DOTAP, Lipofectamine per manufacturer
Procedure: (§1) a) 1.1 mg of the compound obtained in Example 1b) were solubilized in trifluoroethanol and mixed with 1.1 mg of dioleoylphosphatidyl-ethanolamine (DOPE) in chloroform. The mixture was dried in vacuo and the remaining film rehydrated with 1 ml of 30 mM Tris Cl buffer pH 8.5. […]
(§2) b) Plasmid DNA (10 μg) was diluted in 400 μl of 30 mM Tris Cl buffer pH 8.5. Then […] of the product obtain in paragraph a) were added and gently mixed. The mixture was then added to cells.
(§3) |Transfection of various cell lines with a mixture of the | compound of Example 1b and DOPE or cationic lipids. Cells were | transfected with a luciferase encoding plasmid formulated as described | earlier in this Example. Luciferase activity was measured 48 h after | transfection. Results are expressed as μ Units per well, | ^2) DOTAP and Lipofectamine transfection complexes were prepared
(§4) according to the manufacturer's instructions.

LM tk- = test: as above; details: 48 h after transfection, Example 1b mixed with DOPE per Example 2, DOTAP, Lipofectamine per manufacturer
Procedure: as §1, §2, §3, §4

HeLa = test: as above; details: 48 h after transfection, Example 1b mixed with DOPE per Example 2, DOTAP, Lipofectamine per manufacturer
Procedure: as §1, §2, §3, §4

LM = test: as above; details: 48 h after transfection, Example 1b mixed with DOPE per Example 2, DOTAP, Lipofectamine per manufacturer
Procedure: as §1, §2, §3, §4

293-EBNA = test: as above; details: 48 h after transfection, Example 1b mixed with DOPE per Example 2, DOTAP, Lipofectamine per manufacturer
Procedure: as §1, §2, §3, §4

C2E12 = test: as above; details: 48 h after transfection, Example 1b mixed with DOPE per Example 2, DOTAP, Lipofectamine per manufacturer
Procedure: as §1, §2, §3, §4

293 EBNA cells = test: Transfection of 293 EBNA cells with compound of Example 1b, polyethylenimine or a mixture thereof (Table 5); details: 6 cm dishes, 1 μg DNA per well, 48 h
Procedure: a) 1.0 mg of the compound obtained in Example 1b) was dissolved in trifluoroethanol and dried in vacuo. The film was then rehydrated with 1 ml of 10 mM Tris maleate buffer pH 6. b) 10 μl of a plasmid DNA solution (1 mg/ml) were diluted with 200 μl of pure, sterile water. 39 μl of the product obtained in paragraph a) and 14 μl of an aqueous polyethylenimine solution (0.45 mg/ml) were added. The mixture was adjusted with water to 300 μl, gently mixed and then added to 292 EBNA cells. […]
c) 10 μl of a plasmid DNA solution (1 mg/ml) were diluted with 200 μl of pure, sterile water. 52 μl of the product obtained in paragraph a) were added and adjusted with water to 300 μl. The mixture was gently mixed and then added to 292 EBNA cells. […]
d) 10 μl of a plasmid DNA solution (1 mg/ml) were diluted with 200 μl of pure, sterile water. 56 μl of an aqueous polyethylenimine solution (0.45 mg/ml) were added and adjusted with water to 300 μl. The mixture was gently mixed and then added to 292 EBNA cells.
Transfection of 293 EBNA cells with the compound of Example
| 1b, polyethylenimine or a mixture thereof. Cells grown in 6 cm dishes | were transfected with a luciferase encoding plasmid (1 μg DNA per […]
formulated as described earlier in this Example. Luciferase activity […]
measured 48 h later. Results are expressed as relative light units per

3T3 = test: Transfection with β-galactosidase plasmid, increasing DNA doses (Table 3); details: mixture with DOPE, 48 h after transfection
Procedure: as §1, §2
(§5) The effect of DNA dose on the transfection efficiency of various cell lines using the compound obtained in Example 1b formulated according to the example 2 is shown in Table 3.
(§6) |Transfection of various cell lines with a mixture of the | compound of Example lb and DOPE using increasing DNA doses. Cells
(§7) were transfected with a β-galactosidase encoding plasmid formulated […]
(§8) described earlier in this Example. β-galactosidase activity was […]
(§9) 48 h after transfection. Results are expressed as μ Units per well, […]

COS-1 = test: as above; details: mixture with DOPE, 48 h after transfection
Procedure: as §1, §2, §5, §6, §7, §8, §9

CV-1 = test: as above; details: mixture with DOPE, 48 h after transfection
Procedure: as §1, §2, §5, §6, §7, §8, §9

HepG2 = test: as above; details: mixture with DOPE, 48 h after transfection
Procedure: as §1, §2, §5, §6, §7, §8, §9

various cell lines = test: Toxicity on cells at high doses of DNA and compound (Table 3 experiment); details: formulated according to Example 2
Procedure: a) 1.1 mg of the compound obtained in Example 1b) were solubilized in trifluoroethanol and mixed with 1.1 mg of dioleoylphosphatidyl-ethanolamine (DOPE) in chloroform. The mixture was dried in vacuo and the remaining film rehydrated with 1 ml of 30 mM Tris Cl buffer pH 8.5.
as §2, §5

CCCCCCCC/C=C\CCCCCCCC(=O)OCC(COC(=O)CCCCCCC/C=C\CCCCCCCC)NC(=O)C(CCCNCCCN)NCCCN (stereo not drawn) [DOSPER]
Luciferase activity [1]: 0 light units per mg of cell pro

CCCCCCCC/C=C\CCCCCCCC(=O)OCC(C[N+](C)(C)C)OC(=O)CCCCCCC/C=C\CCCCCCCC (stereo not drawn) [DOTAP, reference compound]
Luciferase activity (CHO K1): 814133 μ Units per well | Luciferase activity (LM tk-): 594518 μ Units per well | Luciferase activity (HeLa): 5409 μ Units per well | Luciferase activity (LM): 68614 μ Units per well | Luciferase activity (293-EBNA): 706718 μ Units per well | Luciferase activity (C2E12): 156947 μ Units per well | Luciferase activity [1]: 0 light units per mg of cell pro

compound of formula IIA wherein R^1 and R^2 are oleoyl and R^3 is the residue --(CH2)--CH(NH2)--CO-Ile-Gly-Ala-Val-Leu-Lys-Val-Leu-Thr-Thr-Gly-Leu-Pro-Ala-Leu-Ile-Ser-Trp-Ile-Lys-Arg-Lys-Arg-Gln-Gln-NH2 [Example 1b]
Luciferase activity (CHO K1): 1825019 μ Units per well | Luciferase activity (LM tk-): 1712739 μ Units per well | Luciferase activity (HeLa): 33497 μ Units per well | Luciferase activity (LM): 31685 μ Units per well | Luciferase activity (293-EBNA): 2343658 μ Units per well | Luciferase activity (C2E12): 563827 μ Units per well | Luciferase activity (293 EBNA cells): 3.9 × 10^5 relative light units per dish | Galactosidase activity (3T3; 0.2 μg DNA): 318 μ Units per well | Galactosidase activity (3T3; 0.5 μg DNA): 451 μ Units per well | Galactosidase activity (3T3; 1 μg DNA): 1032 μ Units per well | Galactosidase activity (3T3; 2 μg DNA): 1301 μ Units per well | Galactosidase activity (COS-1; 0.2 μg DNA): 16325 μ Units per well | Galactosidase activity (COS-1; 0.5 μg DNA): 20545 μ Units per well | Galactosidase activity (COS-1; 1 μg DNA): 16005 μ Units per well | Galactosidase activity (COS-1; 2 μg DNA): 15740 μ Units per well | Galactosidase activity (CV-1; 0.2 μg DNA): 2700 μ Units per well | Galactosidase activity (CV-1; 0.5 μg DNA): 4440 μ Units per well | Galactosidase activity (CV-1; 1 μg DNA): 9775 μ Units per well | Galactosidase activity (CV-1; 2 μg DNA): 20434 μ Units per well | Galactosidase activity (HepG2; 0.2 μg DNA): 2533 μ Units per well | Galactosidase activity (HepG2; 0.5 μg DNA): 7944 μ Units per well | Galactosidase activity (HepG2; 1 μg DNA): 8988 μ Units per well | Galactosidase activity (HepG2; 2 μg DNA): 13816 μ Units per well | Toxicity on cells (various cell lines): without any obvious toxicity | Ability to transfect the suspension cell-line WEHI 231.7 ([1]; compared with DOTAP and DOSPER, same transfection conditions): able to transfect the suspension cell-line WEHI 231.7, albeit at a low level
